Reference: patent US20240285785A1, “TARGETING SORTILIN” (priority 2022, published 2024)

Key:
SORT1 = molecular target: T1, SORT1 (Homo sapiens, UniProt Q99523); assay: Competition binding in FP; conditions: FP competition binding assays, PDC vs parent peptide
T1 construct: Human SORT1 (78-755)-His (Acrobiosystems); His (C); purchased Acrobiosystems SON—H52H5
T1 sequence (Q99523 78-755): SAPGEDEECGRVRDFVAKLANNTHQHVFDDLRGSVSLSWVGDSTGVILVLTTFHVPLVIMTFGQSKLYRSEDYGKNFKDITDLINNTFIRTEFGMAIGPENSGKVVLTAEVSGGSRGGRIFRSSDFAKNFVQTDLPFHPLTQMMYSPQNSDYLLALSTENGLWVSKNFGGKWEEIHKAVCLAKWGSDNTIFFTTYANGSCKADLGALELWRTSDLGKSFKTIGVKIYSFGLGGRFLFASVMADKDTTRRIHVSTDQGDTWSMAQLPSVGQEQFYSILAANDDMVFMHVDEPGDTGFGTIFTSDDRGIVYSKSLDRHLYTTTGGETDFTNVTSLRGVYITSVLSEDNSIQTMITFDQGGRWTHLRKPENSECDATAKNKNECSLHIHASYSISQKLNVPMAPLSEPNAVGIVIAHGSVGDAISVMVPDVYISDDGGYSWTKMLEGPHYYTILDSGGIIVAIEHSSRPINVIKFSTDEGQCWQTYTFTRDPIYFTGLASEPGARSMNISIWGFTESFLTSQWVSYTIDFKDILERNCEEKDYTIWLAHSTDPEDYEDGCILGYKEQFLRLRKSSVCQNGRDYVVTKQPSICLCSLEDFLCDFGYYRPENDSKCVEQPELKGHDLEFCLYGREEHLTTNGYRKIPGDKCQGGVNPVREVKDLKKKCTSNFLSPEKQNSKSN
Protocol: Competition binding studies were conducted in a similar manner to the direct binding protocol. Unlabeled peptides were prepared with a 12-point, two-fold dilution series in a V-bottom 96-well plate for a total volume of 25 μL with a starting concentration of 50 μM. A 10× working stock of the FAM labeled peptide was prepared as described for the Direct binding experiment.
An aliquot of 20 μL of the 500 nM working solution was then added to 2.5 μL of the FAM-peptide, after which 2.5 μL of the unlabeled peptide dilution series was added and mixed by pipetting in a V-bottom 96-well plate. Samples were allowed to incubate for 15 minutes, then 10 μL of the mixture was transferred to an opaque black 384-well non-binding FP plate (Corning® Low Volume 384-well Black Flat Bottom Polystyrene NBS Microplate, #3820) in technical duplicates. The 384-well plate was then centrifuged 1 min, 4000 rpm and fluorescence and polarization of dye measured on a Biotek Synergy Neo2 plate reader using the same settings as for the Direct Binding experiment. Data were then fitted to a One site—Fit logIC50 curve in GraphPad to calculate the IC50.

MDA-MB-231 tumor cells = assay: MDA-MB-231 murine xenograft efficacy model; type: in vivo, BALB/c Nude mice
Protocol: Murine xenograft experiments were conducted at WuXi AppTec and/or Charles River Laboratories and the care and use of animals was conducted in accordance with the regulations of the Association for Assessment and Accreditation of Laboratory Animal Care (AAALAC). MDA-MB-231 tumor cells (ATCC, Manassas, VA, cat #HTB-26) were grown and maintained in L15 medium supplemented with 10% heat inactivated fetal bovine serum, 1% Antibiotic-Antimycotic, and L-glutamine (2 mM) at 37° C. in an atmosphere in 5% CO2, 95% air. BALB/c Nude, female, 6-8 weeks, weighing approximately 18-22 g were purchased from Vital River Laboratory Animal Technology Co., LTD. Mice were inoculated subcutaneously at the right flank with MDA-MB-231 tumor cells (e.g., triple negative breast cancer cells) (10×10^6) in 0.2 mL of PBS with Matrigel (1:1) for tumor development. Animals were randomized and treatment was started when the average tumor volume reached approximately 150-200 mm^3 for the efficacy study. Dosing volume was adjusted based on body weight and was administered at 10 ml/Kg. […] Free MMAE payload was also tested, and similarly dissolved in 25 mM Histidine 10% sucrose pH 7 and one or more of the following doses, 0.6, 0.06 mg/kg, were administered to the mice i.v. at a QW×4 schedule. Tumor sizes were measured twice weekly in two dimensions using a caliper, and the volume in mm^3 calculated using the formula: V=0.5 a×b^2, where a and b are the long and short diameters of the tumor, respectively. TGI was calculated for each group using the formula: TGI (%)=[1−(Ti−T0)/(Vi−V0)]×100; where Ti is the average tumor volume of a treatment group on a given day, T0 is the average tumor volume of the treatment group on the first day of treatment, Vi is the average tumor volume of the vehicle control group on the same day with Ti, and V0 is the average tumor volume of the vehicle group on the first day of treatment.

[1] = CMC formulation buffer screen (shake flask solubility); type: physicochemical; conditions: 0.5 mg/mL
Protocol: Exemplary conjugate agents (e.g., sortilin binding agents), referred to in the present Example as “peptide drug conjugates” or “PDCs” were assessed in a formulation screen to determine an appropriate vehicle for in vivo studies and to assess precipitation risk. PDC solutions were made up to 0.5 mg/mL in the following buffers: 25 mM Histidine 10% sucrose pH 7, 50 mM acetate/acetic acid, 10% sucrose pH 5, 1×PBS pH 7.4, Saline, 50 mM HEPES 10% sucrose pH 7. Solubility was assessed using a shake flask method and the test compound concentration of the filtrate was confirmed using HPLC-UV.
The following buffers were screened: 25 mM Histidine 10% sucrose pH 7, 50 mM acetate/acetic acid, 10% sucrose pH 5, 1×PBS pH 7.4, Saline, 50 mM HEPES 10% sucrose pH 7. The PDCs were soluble in all buffers tested (Table 1), and we proceed to use 25 mM Histidine, 10% sucrose pH 7 as our buffer of choice for our in vivo studies.

SMILES: CC[C@H](C)[C@@H]([C@@H](CC(=O)N1CCC[C@H]1[C@H](OC)[C@@H](C)C(=O)N[C@H](C)[C@@H](O)c1ccccc1)OC)N(C)C(=O)[C@@H](NC(=O)[C@H](C(C)C)N(C)C(=O)OCc1ccc(NC(=O)[C@H](CCCNC(N)=O)NC(=O)[C@@H](NC(=O)CCCC(=O)NCCC(=O)N(C)CC(=O)N(C)CC(=O)N(C)CC(=O)N(C)CC(=O)N[C@@H](C)C(=O)N2CCC[C@H]2C(=O)N[C@@H](CCCNC(=N)N)C(=O)N[C@@H](Cc2c[nH]c3ccccc23)C(=O)N[C@@H](CC(=O)O)C(=O)N[C@@H](C)C(=O)N2CCC[C@H]2C(=O)N[C@@H](CC(C)C)C(=O)N[C@@H](CCCNC(=N)N)C(=O)N[C@@H](CC(=O)O)C(=O)N2CCC[C@H]2C(=O)N[C@@H](C)C(=O)N[C@@H](CC(C)C)C(=O)N[C@@H](CCCNC(=N)N)C(=O)N[C@@H](CCC(N)=O)C(=O)N[C@@H](CC(C)C)C(=O)N[C@@H](CC(C)C)C(=O)O)C(C)C)cc1)C(C)C [PRGN_WT_PDC]
- increase in affinity relative to parent homing peptide (SORT1): ~2.5 ×
- tumor growth inhibited relative to vehicle (MDA-MB-231 tumor cells; 3 mg/kg i.v. QW×4, day 22 (Example 8)): 96%
- tumor growth inhibition (MDA-MB-231 tumor cells; 3, 1, 0.3 mg/kg i.v. QW x 4): dose-dependent tumor growth inhibition
- body weight variation (MDA-MB-231 tumor cells; Example 6, PDC 3, 1, 0.3 mg/kg, free MMAE at equivalency to 3 mg/kg PDC): mirrored that observed with vehicle treatment
- body weight loss (MDA-MB-231 tumor cells; Example 8, PDC 3 mg/kg, free MMAE 0.6 mg/kg, i.v. QW×4): body weight loss tracked each other
- formulation screen result ([1]; 25 mM Histidine 10% sucrose pH 7): clear solution
- formulation screen result ([1]; 50 mM HEPES 10% sucrose pH 7): clear solution
- formulation screen result ([1]; 50 mM acetate/acetic acid, 10% sucrose pH 5): clear solution
- formulation screen result ([1]; 1x PBS pH 7.4): clear solution
- formulation screen result ([1]; Saline): clear solution
